Data taken from article PMC8115288.

Columns and labels:
GST-LEDGF = GST-LEDGF (UniProt O75475); test: GST-pull down, quantitation of bound protein; details: parent: est. 1.0; read off a plot
GST-Gemin2 = GST-Gemin2 (UniProt O14893); test: GST-pull down, quantitation of bound protein; details: parent: est. 1.0; read off a plot
GST-SAP18 = GST-SAP18 (UniProt O00422); test: pull-down; GST-INI1, GST-SAP18, GST-LEDGF or GST-Gemin2 as bait, His6-IN(WT) or His6-IN(W235E) as prey; bound protein quantified as fraction bound after normalising to the loading control
GST-SAP18, sequence (O00422 whole entry): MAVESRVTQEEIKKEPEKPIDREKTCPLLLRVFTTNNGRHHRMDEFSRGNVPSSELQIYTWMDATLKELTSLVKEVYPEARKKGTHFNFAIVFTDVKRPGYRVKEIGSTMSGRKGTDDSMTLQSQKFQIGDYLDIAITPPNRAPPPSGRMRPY

GST-LEDGF, sequence (O75475 whole entry): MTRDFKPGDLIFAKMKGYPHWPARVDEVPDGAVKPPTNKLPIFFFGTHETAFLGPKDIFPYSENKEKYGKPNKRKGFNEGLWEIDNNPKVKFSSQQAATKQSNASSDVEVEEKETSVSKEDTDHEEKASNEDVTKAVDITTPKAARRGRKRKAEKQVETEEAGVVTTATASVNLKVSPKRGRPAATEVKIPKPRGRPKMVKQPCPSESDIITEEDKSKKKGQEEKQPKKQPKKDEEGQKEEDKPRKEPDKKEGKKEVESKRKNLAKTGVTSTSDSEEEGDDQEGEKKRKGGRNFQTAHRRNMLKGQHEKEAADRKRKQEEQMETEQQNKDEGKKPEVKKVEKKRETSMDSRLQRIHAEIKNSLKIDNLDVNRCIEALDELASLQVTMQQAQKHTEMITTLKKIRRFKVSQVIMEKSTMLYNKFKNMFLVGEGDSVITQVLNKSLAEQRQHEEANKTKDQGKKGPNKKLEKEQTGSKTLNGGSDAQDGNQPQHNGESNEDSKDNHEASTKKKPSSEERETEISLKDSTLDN
GST-Gemin2, sequence (O14893 whole entry): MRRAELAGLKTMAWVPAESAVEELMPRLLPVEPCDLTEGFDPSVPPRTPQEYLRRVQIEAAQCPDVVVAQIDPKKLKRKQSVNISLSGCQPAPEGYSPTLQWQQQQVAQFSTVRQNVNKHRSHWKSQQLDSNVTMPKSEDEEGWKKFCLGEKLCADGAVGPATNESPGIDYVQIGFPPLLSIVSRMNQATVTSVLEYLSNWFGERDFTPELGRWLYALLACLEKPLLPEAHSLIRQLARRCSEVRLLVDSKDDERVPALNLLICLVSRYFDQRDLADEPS

Row | Substance | ratio to parent (GST-LEDGF) | ratio to parent (GST-Gemin2) | % binding (GST-SAP18)
1 | His6-IN(WT) W235E | 0.82 | 0.8 | –
2 | His6-IN(W235E) (enzyme) | – | – | 20%
